Our source for the Kd values is paper PMC7907143, “SPARC coordinates extracellular matrix remodeling and efficient recruitment to and migration of antigen-specific T cells in the brain following infection” (Scientific Reports, 2021).

Experiment [1] addresses Secreted Protein, Acidic, Rich in Cysteine (SPARC), recombinant murine (murine) (UniProt P07214). Briefly: MST; Monolith NT.115; 4.5 nM NT-495-labelled SPARC, unlabelled chemokine titrated; Ca-MST buffer (50 mM Tris pH 7.4, 150 mM NaCl, 2 mM CaCl2, 0.05% Tween 20); room temperature; three measurements; thermophoresis plus t-jump.
In experiment [2] the target is CXCL10 (UniProt P02778). The following applies: cited from earlier work.
Experiment [3] concerns the target T1, Secreted Protein, Acidic, Rich in Cysteine (SPARC), recombinant murine (murine, UniProt P07214 18-302, fluorescent label NT-495, covalently linked by NHS coupling (in the thermophoresis only; unlabelled in the gel filtration)).
T1 construct: SPARC, mouse, recombinant; most likely the mature secreted protein; also called recombinant SPARC; source: bought: R&D Systems or Peprotech (recombinant murine)
T1 sequence (looked up): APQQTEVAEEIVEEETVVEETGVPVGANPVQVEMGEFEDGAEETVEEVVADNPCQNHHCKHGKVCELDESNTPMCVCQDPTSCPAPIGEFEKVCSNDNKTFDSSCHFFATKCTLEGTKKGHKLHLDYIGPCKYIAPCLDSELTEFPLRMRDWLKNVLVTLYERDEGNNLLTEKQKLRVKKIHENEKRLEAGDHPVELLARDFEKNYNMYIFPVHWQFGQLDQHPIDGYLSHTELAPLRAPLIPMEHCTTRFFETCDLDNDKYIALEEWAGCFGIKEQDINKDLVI
Nature of the experiment: MST; Monolith NT.115; 4.5 nM NT-495-labelled SPARC, unlabelled chemokine titrated; Ca-MST buffer (50 mM Tris pH 7.4, 150 mM NaCl, 2 mM CaCl2, 0.05% Tween 20); room temperature; three measurements; thermophoresis plus t-jump. The following applies: both partners purified.

The term Kd denotes the free concentration of one partner at which half of the binding sites on the other are occupied at equilibrium, for simple one-to-one binding. With “CCL21, recombinant murine (from UniProt P84444 24-133) (ligand)”, the Kd in experiment [1] turned out to be 0.984 µM.
As for CXCL10 (from UniProt P02778), the Kd in experiment [2] is 9 µM.

B1: CCL19, recombinant murine (ligand, UniProt O70460 26-108, looked up)
chain: GANDAEDCCLSVTQRPIPGNIVKAFRYLLNEDGCRVPAVVFTTLRGYQLCAPPDQPWVDRIIRRLKKSSAKNKGNSTRRSPVS
notes: CCL19, mouse, recombinant; Most likely the mature chemokine without its signal peptide; source: bought: R&D Systems or Peprotech (recombinant murine)
As to B1, in experiment [3], the Kd turned out to be 0.0019 µM.
